# In patent US20090098112A1 (Genentech, published 2009):
# Biological target: T1, recombinant human integrin α5β1 (R&D) (human, UniProt P08648 42-995; P05556 21-728)
# T1 construct: Bought recombinant heterodimer (R&D); It was used coated on plates and in solution in the phage ELISA, and as analyte or immobilized in BIAcore; also called alpha5beta1; a5b1
# Experiment: phage competition ELISA: Fab-phage incubated with serially diluted soluble human integrin α5β1, unbound phage captured on plate-coated integrin α5β1, anti-M13-HRP, A450
# Method: Mutation at each position was generated by Kunkel mutagenesis using a separate oligonucleotide. Phage competition ELISA was utilized for evaluating all of the variants. […] Binding affinities (IC50) against human integrin α5β1 was determined.
# (§1) MAXISORP™ microtiter plates were coated with recombinant human integrin α5β1 (R&D) at 5 μg/ml in PBS overnight and then blocked with PBST buffer (0.5% BSA and 0.05% Tween 20 in PBS) for an hour at room temperature. Phage from culture supernatants were incubated with serially diluted human integrin α5β1 in PBST buffer in a tissue-culture microtiter plate for an hour, after which 80 μl of the mixture was transferred to the target-coated wells for 15 minutes to capture unbound phage. The plate was washed with PBT buffer (0.05% Tween 20 in PBS), and HRP-conjugated anti-M13 (Amersham Pharmacia Biotech) was added (1:5000 in PBST buffer) for 40 minutes. The plate was washed with PBT buffer and developed by adding tetramethylbenzidine substrate (Kirkegaard and Perry Laboratories, Gaithersburg, Md.). The absorbance at 450 nm was plotted as a function of target concentration in solution to determine phage IC₅₀.
# T1 sequence (P08648 42-995 limits assumed, chain 1 of 2): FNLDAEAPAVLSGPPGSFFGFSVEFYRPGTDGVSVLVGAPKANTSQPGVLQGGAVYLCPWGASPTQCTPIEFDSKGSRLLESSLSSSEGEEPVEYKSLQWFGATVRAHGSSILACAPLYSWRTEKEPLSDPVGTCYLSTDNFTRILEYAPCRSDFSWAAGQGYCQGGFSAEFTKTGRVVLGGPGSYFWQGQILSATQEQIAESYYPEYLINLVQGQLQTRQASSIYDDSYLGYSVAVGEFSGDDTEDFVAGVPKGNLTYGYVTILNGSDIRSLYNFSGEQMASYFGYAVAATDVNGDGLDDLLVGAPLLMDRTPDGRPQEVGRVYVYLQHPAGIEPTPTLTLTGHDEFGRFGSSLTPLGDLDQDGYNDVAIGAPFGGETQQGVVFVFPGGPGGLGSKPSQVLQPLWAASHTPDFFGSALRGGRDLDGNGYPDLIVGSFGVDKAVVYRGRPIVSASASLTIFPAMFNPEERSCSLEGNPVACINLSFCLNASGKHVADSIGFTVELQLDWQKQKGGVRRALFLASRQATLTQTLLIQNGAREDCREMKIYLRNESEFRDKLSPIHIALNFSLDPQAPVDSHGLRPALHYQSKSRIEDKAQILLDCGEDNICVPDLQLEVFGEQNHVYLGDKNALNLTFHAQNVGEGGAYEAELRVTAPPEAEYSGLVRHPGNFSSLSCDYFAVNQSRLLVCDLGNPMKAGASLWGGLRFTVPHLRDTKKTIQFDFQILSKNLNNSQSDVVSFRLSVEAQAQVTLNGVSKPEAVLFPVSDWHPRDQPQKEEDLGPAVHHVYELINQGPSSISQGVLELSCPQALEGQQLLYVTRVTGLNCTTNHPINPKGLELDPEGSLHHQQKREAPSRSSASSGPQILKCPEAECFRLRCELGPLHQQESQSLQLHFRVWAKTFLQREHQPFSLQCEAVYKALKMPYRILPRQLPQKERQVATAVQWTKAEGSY
# T1 sequence (P05556 21-728 limits assumed, chain 2 of 2): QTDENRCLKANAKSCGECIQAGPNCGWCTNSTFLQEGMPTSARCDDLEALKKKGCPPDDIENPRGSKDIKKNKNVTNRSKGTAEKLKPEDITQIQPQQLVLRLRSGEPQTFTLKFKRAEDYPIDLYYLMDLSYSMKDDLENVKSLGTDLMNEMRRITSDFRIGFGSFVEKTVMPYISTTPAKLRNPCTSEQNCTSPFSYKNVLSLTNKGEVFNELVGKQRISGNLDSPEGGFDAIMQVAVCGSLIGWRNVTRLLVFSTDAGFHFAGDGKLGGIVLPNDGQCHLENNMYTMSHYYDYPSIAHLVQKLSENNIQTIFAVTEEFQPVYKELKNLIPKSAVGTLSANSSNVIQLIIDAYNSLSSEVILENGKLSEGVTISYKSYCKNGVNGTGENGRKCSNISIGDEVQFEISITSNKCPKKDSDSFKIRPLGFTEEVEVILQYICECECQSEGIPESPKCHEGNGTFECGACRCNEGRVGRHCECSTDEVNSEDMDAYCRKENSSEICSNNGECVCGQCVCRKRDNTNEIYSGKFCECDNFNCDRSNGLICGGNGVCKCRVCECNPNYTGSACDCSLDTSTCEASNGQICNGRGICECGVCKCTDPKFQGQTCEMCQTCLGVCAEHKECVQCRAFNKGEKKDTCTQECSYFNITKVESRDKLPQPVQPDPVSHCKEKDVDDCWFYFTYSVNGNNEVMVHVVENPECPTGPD
Binder,binding result,IC50 (read off the curve) [nM]
"h7H5.v2 framework modification clone, heavy chain K66R, displayed on phage as a monovalent Fab (Fab, name in Kabat numbering, V domains shown, Single mutation in h7H5.v2 made by Kunkel mutagenesis; monovalent Fab on phage; The position is Kabat and may be shifted from the count on the entry; also called heavy chain position 66 (K66R)) VH: EVQLVESGGGLVQPGGSLRLSCAASGYTFTDYYLYWVRQAPGKGLEWIGGISPSSGGTTFADAFEGRATLSVDKSKNTAYLQMNSLRAEDTAVYYCTRDAYGDWYFDVWGQGT VL: DIQMTQSPSSLSASVGDRVTITCKASQSVGSDVAWYQQKPGKAPKTLIYSTSYRYSGVPSRFSGSGSGTDFTLTISSLQPEDFATYYCQQYSSYPFTFGQGTKVEIKR",binds,
"h7H5.v2 framework modification clone, heavy chain L69I, displayed on phage as a monovalent Fab (Fab, name in Kabat numbering, V domains shown, Single mutation in h7H5.v2 made by Kunkel mutagenesis; monovalent Fab on phage; The position is Kabat and may be shifted from the count on the entry; also called heavy chain position 69 (L69I)) VH: EVQLVESGGGLVQPGGSLRLSCAASGYTFTDYYLYWVRQAPGKGLEWIGGISPSSGGTTFADAFEGKATISVDKSKNTAYLQMNSLRAEDTAVYYCTRDAYGDWYFDVWGQGT VL: DIQMTQSPSSLSASVGDRVTITCKASQSVGSDVAWYQQKPGKAPKTLIYSTSYRYSGVPSRFSGSGSGTDFTLTISSLQPEDFATYYCQQYSSYPFTFGQGTKVEIKR",,~0.05
"h7H5.v2 framework modification clone, heavy chain A67F, displayed on phage as a monovalent Fab (Fab, name in Kabat numbering, V domains shown, Single mutation in h7H5.v2 made by Kunkel mutagenesis; monovalent Fab on phage; The position is Kabat and may be shifted from the count on the entry; also called heavy chain position 67 (A67F)) VH: EVQLVESGGGLVQPGGSLRLSCAASGYTFTDYYLYWVRQAPGKGLEWIGGISPSSGGTTFADAFEGKFTLSVDKSKNTAYLQMNSLRAEDTAVYYCTRDAYGDWYFDVWGQGT VL: DIQMTQSPSSLSASVGDRVTITCKASQSVGSDVAWYQQKPGKAPKTLIYSTSYRYSGVPSRFSGSGSGTDFTLTISSLQPEDFATYYCQQYSSYPFTFGQGTKVEIKR",binds,

# Biological target: T1, recombinant human integrin α5β1 (R&D)
# Experiment: phage competition ELISA IC50 of the Fab-phage against human integrin α5β1, relative to parental h7H5.v1; down arrow = loss, up arrow = improvement of binding affinity
# Method: Substitutions with other resides at various positions was achieved by Kunkel mutagenesis using a separate oligonucleotide for each position. […] The IC50 values for binding affinity were determined by phage competition ELISA in FIG. 6. Two variants, h7H5.v2 and h7H5.v3 as indicated were selected to include glycine substitution at position 65 of CDR-H2, cloned into hIgG1 vector, and evaluated binding affinities using BIAcore instrument.
# as §1
row,Binder,Relative Fold to h7H5.v1 [fold]
1,"CDR-H2:N62A (Fab, part only; not given: VH end, constant domains, phage fusion, V domains shown, not shown: another chain or arm of the molecule; a dimerising Fc or GST; large carriers) VL: DIQMTQSPSSLSASVGDRVTITCKASQNVGSDVAWYQQKPGKAPKTLIYSTSYRYSGVPSRFSGSGSGTDFTLTISSLQPEDFATYYCQQYNSYPFTFGQGTKVEIK VH: EVQLVESGGGLVQPGGSLRLSCAASGYTFTDYYLYWVRQAPGKGLEWIGGISPSNGGTTFNDAFENKATLSVDKSKNTAYLQMNSLRAEDTAVYYCTRDAYGDWYFDVWGQGT",1
2,"CDR-H2:N60A (Fab, part only; not given: VH end, constant domains, phage fusion, V domains shown, not shown: another chain or arm of the molecule; a dimerising Fc or GST; large carriers) VL: DIQMTQSPSSLSASVGDRVTITCKASQNVGSDVAWYQQKPGKAPKTLIYSTSYRYSGVPSRFSGSGSGTDFTLTISSLQPEDFATYYCQQYNSYPFTFGQGTKVEIK VH: EVQLVESGGGLVQPGGSLRLSCAASGYTFTDYYLYWVRQAPGKGLEWIGGISPSNGGTTFADNFENKATLSVDKSKNTAYLQMNSLRAEDTAVYYCTRDAYGDWYFDVWGQGT",1.6
3,"CDR-H2:N60S (Fab, part only; not given: VH end, constant domains, phage fusion, V domains shown, not shown: another chain or arm of the molecule; a dimerising Fc or GST; large carriers) VL: DIQMTQSPSSLSASVGDRVTITCKASQNVGSDVAWYQQKPGKAPKTLIYSTSYRYSGVPSRFSGSGSGTDFTLTISSLQPEDFATYYCQQYNSYPFTFGQGTKVEIK VH: EVQLVESGGGLVQPGGSLRLSCAASGYTFTDYYLYWVRQAPGKGLEWIGGISPSNGGTTFSDNFENKATLSVDKSKNTAYLQMNSLRAEDTAVYYCTRDAYGDWYFDVWGQGT",2.5
4,"CDR-H2:N54S (Fab, part only; not given: VH end, constant domains, phage fusion, V domains shown, not shown: another chain or arm of the molecule; a dimerising Fc or GST; large carriers) VL: DIQMTQSPSSLSASVGDRVTITCKASQNVGSDVAWYQQKPGKAPKTLIYSTSYRYSGVPSRFSGSGSGTDFTLTISSLQPEDFATYYCQQYNSYPFTFGQGTKVEIK VH: EVQLVESGGGLVQPGGSLRLSCAASGYTFTDYYLYWVRQAPGKGLEWIGGISPSSGGTTFNDNFENKATLSVDKSKNTAYLQMNSLRAEDTAVYYCTRDAYGDWYFDVWGQGT",1
5,"CDR-L3:N92A (Fab, V domains shown, Fab-phage; also called h7H5.v1 single point mutant, light chain N92A, Fab-phage) VH: EVQLVESGGGLVQPGGSLRLSCAASGYTFTDYYLYWVRQAPGKGLEWIGGISPSNGGTTFNDNFENKATLSVDKSKNTAYLQMNSLRAEDTAVYYCTRDAYGDWYFDVWGQGT VL: DIQMTQSPSSLSASVGDRVTITCKASQNVGSDVAWYQQKPGKAPKTLIYSTSYRYSGVPSRFSGSGSGTDFTLTISSLQPEDFATYYCQQYASYPFTFGQGTKVEIK",1
6,"CDR-L3:N92S (Fab, V domains shown, Fab-phage; also called h7H5.v1 single point mutant, light chain N92S, Fab-phage; copies: 1 + 1) VH: EVQLVESGGGLVQPGGSLRLSCAASGYTFTDYYLYWVRQAPGKGLEWIGGISPSNGGTTFNDNFENKATLSVDKSKNTAYLQMNSLRAEDTAVYYCTRDAYGDWYFDVWGQGT VL: DIQMTQSPSSLSASVGDRVTITCKASQNVGSDVAWYQQKPGKAPKTLIYSTSYRYSGVPSRFSGSGSGTDFTLTISSLQPEDFATYYCQQYSSYPFTFGQGTKVEIK",1
7,"CDR-L1:N28S (Fab, V domains shown, Fab-phage; also called h7H5.v1 single point mutant, light chain N28S, Fab-phage; copies: 1 + 1) VH: EVQLVESGGGLVQPGGSLRLSCAASGYTFTDYYLYWVRQAPGKGLEWIGGISPSNGGTTFNDNFENKATLSVDKSKNTAYLQMNSLRAEDTAVYYCTRDAYGDWYFDVWGQGT VL: DIQMTQSPSSLSASVGDRVTITCKASQSVGSDVAWYQQKPGKAPKTLIYSTSYRYSGVPSRFSGSGSGTDFTLTISSLQPEDFATYYCQQYNSYPFTFGQGTKVEIK",1.3
